Source: US7485710B2, “Nucleic acids coding for adhesion factor of group B streptococcus, adhesion factors of group B streptococcus and further uses thereof” (priority 2002, dated 2009)
The star is where a group is joined. Biotin = O=C1N[C@H]2[C@H](CS[C@H]2CCCCC(=O)*)N1; Ahx = NCCCCCC(=O)O

Tests used:
[1] = tested on: IgG and IgA antibodies in sera from patients infected with GBS; assay: Peptide ELISA of FbsA peptides with human sera; type: binding; conditions: five sera, dilutions 1:200 and 1:1,000
Description: The 5 biotinylated peptides (wild type <1>: GNVLERRQRDAENRSQ SEQ ID No. 113; alanine mutant peptides: <2> GAVLERRQRDAENRSQ SEQ ID No. 207, <3> GNALERRQRDAENRSQ SEQ ID No. 208, <4> GNVLEARQRDAENRSQ SEQ ID No. 211, <5> GNVLERAQRDAENRSQ SEQ ID No. 212; see also FIG. 11) were coated on Streptavidin-coated ELISA plates and analysed using 5 sera from patients infected with GBS. The patient sera were applied in a dilution of 1:200 and 1:1,000. IgG (A) and IgA (B) antibodies were detected with secondary anti-human antibodies coupled to Horse Radish Peroxidase and ABTS as substrate.
Biotin-labeled peptides were coating on Streptavidin ELISA plates (EXICON) at 10 μg/ml concentration according to the manufacturer's instructions. Sera were tested at two dilutions, 200× and 1,000×.
Highly specific Horse Radish Peroxidase (HRP)-conjugated anti-human IgG or anti-human IgA secondary antibodies (Southern Biotech) were used according to the manufacturers' recommendations (dilution: 1,000×). Antigen-antibody complexes were quantified by measuring the conversion of the substrate (ABTS) to colored product based on OD405nm readings in an automated ELISA reader (TECAN SUNRISE). Following manual coating, peptide plates were processed and analyzed by the Gemini 160 ELISA robot (TECAN) with a built-in reader (GENIOS, TECAN).

GBS 6313 = assay: Competitive inhibition of 125I-labelled fibrinogen binding to GBS; set-up: species or system Streptococcus agalactiae; conditions: increasing concentrations of purified fusion protein
Procedure: FbsA-9 differs from FbsA-19 in that it contains only 9 repeats in its repeat domain. The binding assay was performed with ^125I-labelled fibrinogen in the presence of different concentrations of each fusion protein. Each experiment was performed at least in triplicate.
Each experiment was performed at least in triplicate.
Purified human fibrinogen was radiolabelled with ^125I, using the chloramin T method (Hunter and Greenwood, 1962). Binding of labelled fibrinogen to GBS was performed essentially as described by Chhatwal et al. (Chhatwal, Muller, and Blobel, 1983). Briefly, overnight cultures of GBS were pelleted by centrifugation, washed twice with phosphate-buffered saline supplemented with 0.02% Tween 20 (PBST) and adjusted photometrically to a transmission of 10% at 600 nm. A total of 0.2 ml of the bacterial suspension was added to 20 μl of ^125I-labelled fibrinogen containing 23 ng of fibrinogen. After incubation for 1 h at room temperature, the streptococci were sedimented by centrifugation and washed with 1 ml of PBST. The radioactivity of the pellet was finally measured in a gamma counter (Packard Instruments). The amount of bacterial-bound fibrinogen was calculated as the percentage of total radiolabelled fibrinogen added to the bacteria. In inhibition experiments, the binding of 23 ng of radiolabelled fibrinogen to 0.2 ml of GBS (T=10%) was determined in the presence of various amounts of FbsA fusion proteins, Bsp fusion protein or synthetic peptides. Each experiment was repeated at least three times in triplicate.

A549 cells [2] = assay: Epithelial cell adherence and internalization assay of GBS 6313 in presence of proteins; type: cell-based, human; conditions: pre-treatment of A549 cells with increasing amounts of protein
Procedure: The adherence of GBS 6313 to A549 cells (A) and its internalization into these cells (B) was arbitrarily set to 100% and the results obtained in the presence of the different fusion proteins was related to these values. Each experiment was performed at least three times in triplicate.
Adherence of GBS to epithelial cells and internalization into epithelial cells was assayed essentially as described previously (Caparon et al., 1991; Rubens et al. 1992). Briefly, A549 cells were transferred to 24-well tissue culture plates at approximately 4×10^5 cells per well and cultivated overnight in RPMI (Gibco BRL) tissue culture medium, supplemented with 10% of fetal calf serum. After replacement of the medium with 1 ml of fresh medium, the cells were infected with 5×10^6 streptococci per well and incubated at 37° C. for 2 h. The non-adherent bacteria were removed by washing three times with PBS. In adherence assays, the epithelial cells were subsequently detached from the well by the addition of trypsin/EDTA and lysed by adding 300 μl of distilled water. Adherent bacteria were quantitated by plating serial dilutions of the lysate onto THY agar plates. For internalization assays the epithelial cells were incubated after 2 h of infection for another 2 h in tissue culture medium supplemented with penicilling G (10 U) and streptomycin (0.01 mg) to kill extracellular bacteria. After three washes with PBS, the epithelial cells were detached by the addition of trypsin/EDTA and lysed in 300 μl of distilled water. The amount of intracellular bacteria was quantified by plating serial dilutions of the lysate onto THY agar plates. Each experiment was repeated at least three times in triplicate. […]
Adherence of S. agalactiae to A549 and HEL299 cells and internalization into these cells was assayed essentially as described in Example 1 for A549 cells. In some experiments, A549 cells were preincubated with different amounts of FbsA protein or FbsA-derived peptides in RPMI medium for 30 min with three subsequent washes with PBS.

human fibrinogen = target: T1, human fibrinogen (Homo sapiens, UniProt P02671+P02675+P02679); assay: Western blot of fusion proteins for fibrinogen binding; conditions: His-tagged fusion proteins separated by SDS-PAGE, blotted, probed with human fibrinogen
T1 construct: purchased Sigma-Aldrich
T1 sequence (P02675 31-491): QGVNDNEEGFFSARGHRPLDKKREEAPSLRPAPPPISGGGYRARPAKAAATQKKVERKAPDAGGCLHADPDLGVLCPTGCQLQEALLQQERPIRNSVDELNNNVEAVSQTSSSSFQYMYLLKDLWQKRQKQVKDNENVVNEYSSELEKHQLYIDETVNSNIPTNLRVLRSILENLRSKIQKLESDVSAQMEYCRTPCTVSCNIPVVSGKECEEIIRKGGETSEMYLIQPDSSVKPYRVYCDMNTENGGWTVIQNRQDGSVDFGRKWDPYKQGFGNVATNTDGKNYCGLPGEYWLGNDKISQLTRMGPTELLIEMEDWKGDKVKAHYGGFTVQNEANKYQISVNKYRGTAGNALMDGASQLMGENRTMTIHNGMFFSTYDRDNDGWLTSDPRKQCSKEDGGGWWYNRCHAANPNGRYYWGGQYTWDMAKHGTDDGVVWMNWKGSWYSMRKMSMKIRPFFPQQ
T1 sequence (P02679 27-433): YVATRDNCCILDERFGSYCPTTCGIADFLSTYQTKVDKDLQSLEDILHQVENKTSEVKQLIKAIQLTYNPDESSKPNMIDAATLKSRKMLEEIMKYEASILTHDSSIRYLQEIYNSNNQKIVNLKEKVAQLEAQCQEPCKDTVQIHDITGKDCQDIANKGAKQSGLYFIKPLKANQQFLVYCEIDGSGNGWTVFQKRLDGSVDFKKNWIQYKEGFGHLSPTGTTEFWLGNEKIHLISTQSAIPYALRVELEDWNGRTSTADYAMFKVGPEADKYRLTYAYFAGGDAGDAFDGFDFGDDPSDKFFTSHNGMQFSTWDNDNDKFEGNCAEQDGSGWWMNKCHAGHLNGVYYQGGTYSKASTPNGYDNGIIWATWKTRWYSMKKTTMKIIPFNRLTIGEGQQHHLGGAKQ
T1 sequence (P02671 20-629): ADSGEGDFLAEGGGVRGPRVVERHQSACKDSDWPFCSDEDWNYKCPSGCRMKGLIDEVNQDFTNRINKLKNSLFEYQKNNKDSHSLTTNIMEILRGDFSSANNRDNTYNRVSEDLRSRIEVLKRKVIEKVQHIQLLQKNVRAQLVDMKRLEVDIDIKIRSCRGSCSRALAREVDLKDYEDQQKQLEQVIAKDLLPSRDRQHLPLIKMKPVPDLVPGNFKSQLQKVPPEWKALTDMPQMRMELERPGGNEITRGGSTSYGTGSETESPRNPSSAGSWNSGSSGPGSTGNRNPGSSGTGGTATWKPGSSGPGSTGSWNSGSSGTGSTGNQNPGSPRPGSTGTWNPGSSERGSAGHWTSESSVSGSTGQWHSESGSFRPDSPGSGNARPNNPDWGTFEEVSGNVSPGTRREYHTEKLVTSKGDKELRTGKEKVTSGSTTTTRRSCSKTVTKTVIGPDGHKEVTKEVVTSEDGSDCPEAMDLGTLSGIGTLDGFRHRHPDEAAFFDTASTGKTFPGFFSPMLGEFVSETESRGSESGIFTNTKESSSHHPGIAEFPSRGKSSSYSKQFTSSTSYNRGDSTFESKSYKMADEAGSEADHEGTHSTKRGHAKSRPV
Description: The fibrinogen binding activity of the three proteins encoded by different constructs are indicated below the schematic FbsA drawing.
The fusion proteins were size-separated by SDS-PAGE, transferred onto a nitrocellulose membrane and tested for fibrinogen binding by Western blotting. Bound fibrinogen was detected with rabbit anti-fibrinogen antibodies, followed by peroxidase-labelled goat anti-rabbit antibodies, and visualized by chemiluminescence. PabC and Gbs0851: full-length fusion proteins; PabC-N: N-terminal 388 amino acids of PabC; PabC-C: C-terminal 222 amino acids of PabC. (C) Identification of the FbsA and PabC-binding sites within human fibrinogen by Western blot analysis. […] Bound fusion proteins were detected with mouse anti-HisTag antibodies, followed by peroxidase-conjugated goat anti-mouse IgG fab fragments and visualized by chemiluminescence. […]
Membranes that had been blocked overnight were incubated for 1 h with 2 μg/ml of human fibrinogen. […] After three washes with PBST and two washes with PBS, bound fibrinogen was detected by chemiluminescence using the ECL-kit (Amersham/Pharmacia). In control experiments, no cross-reactivity of the used antibodies with the immobilized proteins and peptides was detected.

A549 cells [3] = assay: Interaction of protein-coated latex beads with A549 cells (scanning electron microscopy); type: cell-based, human
Procedure: BSA-coated latex beads were used as a control.
Latex beads were either coated with BSA (A) or FbsA fusion protein (B-D) and the interaction of the coated beads with the lung epithelial cell line A549 was analyzed by scanning electron microscopy.
Approximately […] latex beads (3 μm diameter, Sigma) were washed tree times in PBS and then coated with 300 μg of fusion protein or BSA in 500 μl PBS overnight at 4° C. Coated beads were washed once in PBS and then blocked with 200 μl of 10 mg/ml BSA in PBS for 1 h at room temperature. Beads were washed twice in PBS and once in RPMI+10% FCS and then resupended in 1 ml of RPMI+10% FCS. 300 μl of beads were added to approximately 4×10^5 A549 cells in 24-well plates. The cells were incubated for 1 h at 37° C. (5% CO2), washed five times with PBS and fixed in a solution containing 3% glutaraldehyde and 5% formaldehyde in cacodylate bluffer for 45 min on ice. The samples were washed with cacodylate buffer, dehydrated in a graded series of acetone and subjected to critical point drying with CO2. Samples were then coated with a 10 nm thick gold film and examined by scanning electron microscopy as described previously (Reinscheid et al., 2001a).
Approximately 1×10^9 latex beads (3 μm diameter, Sigma) were washed three times in 25 mM 2-N-morpholinoethanesulfonic acid (MES), pH 6.8. One half was resuspended in 1.0 ml MES buffer containing 500 μg/ml FbsA fusion protein and the remaining half was resuspended in 1.0 ml MES buffer. The beads were incubated overnight at 4° C. with end-over-end rotation. After pelleting of the beads by centrifugation, the amount of remaining protein in the supernatant was determined with a Bradford protein assay kit (BioRad). The beads were washed once with MES buffer and blocked for 1 h with 10 mg/ml BSA in MES buffer at room temperature. The beads were washed twice with MES buffer, once with RPMI+10% FCS, and resuspended in RPMI+10% FCS. Confluent A549 cells in 24-well plates were inoculated with 2×10^8 beads per well in a total volume of 1.0 ml. The bead monolayer mixtures were incubated for 2 h at 37° C. in a 5% CO2 atmosphere. Cells were washed five times with PBS and fixed with 3% paraformaldehyde and 4% glutaraldehyde in […] cacodylate buffer for scanning electron microscopy. Scanning electron microscopy was performed with a Zeiss DSM 962 microscope.

Molecule	reactivity of biotinylated peptides with IgA and IgG antibodies of patient sera [1]	inhibition of binding of 125I-labelled fibrinogen to GBS 6313 (GBS 6313)	adherence of S. agalactiae 6313 to A549 cells after pre-treatment of the cells (A549 cells [2])	invasion of A549 cells by S. agalactiae 6313 after pre-treatment of the cells (A549 cells [2])	fibrinogen binding in Western blot (human fibrinogen)	binding of protein-coated latex beads to A549 cells (A549 cells [3])	internalization of protein-coated latex beads into A549 cells (A549 cells [3])
GNVLERAQRDAENRSQ ({Biotin-Ahx}-GNVLERAQRDAENRSQ-NH2; SMILES CC(C)C[C@H](NC(=O)[C@@H](NC(=O)[C@H](CC(N)=O)NC(=O)CNC(=O)CCCCCNC(=O)CCCC[C@@H]1SC[C@@H]2NC(=O)N[C@@H]21)C(C)C)C(=O)N[C@@H](CCC(=O)O)C(=O)N[C@@H](CCCNC(=N)N)C(=O)N[C@@H](C)C(=O)N[C@@H](CCC(N)=O)C(=O)N[C@@H](CCCNC(=N)N)C(=O)N[C@@H](CC(=O)O)C(=O)N[C@@H](C)C(=O)N[C@@H](CCC(=O)O)C(=O)N[C@@H](CC(N)=O)C(=O)N[C@@H](CCCNC(=N)N)C(=O)N[C@@H](CO)C(=O)N[C@@H](CCC(N)=O)C(N)=O) [peptide 5]	less well recognized by all sera						
GNVLERRQRDAENRSQ ({Biotin-Ahx}-GNVLERRQRDAENRSQ-NH2; SMILES CC(C)C[C@H](NC(=O)[C@@H](NC(=O)[C@H](CC(N)=O)NC(=O)CNC(=O)CCCCCNC(=O)CCCC[C@@H]1SC[C@@H]2NC(=O)N[C@@H]21)C(C)C)C(=O)N[C@@H](CCC(=O)O)C(=O)N[C@@H](CCCNC(=N)N)C(=O)N[C@@H](CCCNC(=N)N)C(=O)N[C@@H](CCC(N)=O)C(=O)N[C@@H](CCCNC(=N)N)C(=O)N[C@@H](CC(=O)O)C(=O)N[C@@H](C)C(=O)N[C@@H](CCC(=O)O)C(=O)N[C@@H](CC(N)=O)C(=O)N[C@@H](CCCNC(=N)N)C(=O)N[C@@H](CO)C(=O)N[C@@H](CCC(N)=O)C(N)=O; listed as Streptococcus agalactiae) [wild type peptide]	less well recognized by all sera						
FbsA-19: hexahistidyl-tagged FbsA protein from S. agalactiae 6313 with 19 repeats, devoid of signal peptide and membrane-spanning region (protein, left off: small tags and cut ends, hexahistidyl-tagged FbsA protein from S. agalactiae 6313 with 19 repeats, devoid of signal peptide and membrane-spanning region) MDSVGNQSQGNVLERRQRDAENRSQGNVLERRQRDVENKSQGNVLERRQRDAENKSQGNVLERRQRDAENRSQGNVLERRQRDAENRSQGNVLERRQRDAENRSQGNVLERRQRDAENRSQGNVLERRQRDAENRSQGNVLERRQRDVENKSQGNVLERRQRDAENKSQGNVLERRQRDAENRSQGNVLERRQRDAENRSQGNVLERRQRDAENRSQGNVLERRQRDAENRSQGNVLERRQRDAENRSQGNVLERRQRDAENRSQGNVLERRQRDAENRSQGNVLERRQRDAENRSQGNVLERRQRDAENKSQVGQLIGKNPLLSKSIISRENNHSSQGDSNKQSFSKKVSQVTNVANRPMLTNNSRTISVINKLPKTGDDQNV		substantially inhibited	substantially inhibited	substantially inhibited	binding to human fibrinogen	in high numbers	observed rather rarely
